assay: yeast display, Sf9 membrane polyspecificity reagent, FACS + sequencing; frameworks hold sequencing errors
In short: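 Nanobodies from a synthetic yeast display library (Saccharomyces cerevisiae BJ5465), induced 36–48 hours with galactose, were stained 1 hour at 4 °C with 10% biotinylated, detergent-solubilized Sf9 membrane reagent, enriched on streptavidin microbeads, then FACS-sorted. Anti-HA (expression) and streptavidin (reagent binding) fluorescence set low and high (top ~1%) gates. Polyreactivity labels come from the gate of origin. Genes were colony-PCR amplified, MiSeq 2 × 250 sequenced and filtered by CDR length.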

Sequence	polyreactivity (PSR sort gate)
QVQLVESGGGLVQAGGSLRLSCAASGRTFATNAMGWYRQAPGKERELVAAISRRGASTYYADSVKGRFTISRDNAKNTVYLQMNSLKPEDTAVYYCAARQYIRGARIYDYWGQGTQVTVSS	high polyreactivity
QVQLVESGGGLVQAGGSLRLSCAASGRTFATYAMGWYRQAPGKERELVAAISNSGGRTNYADSVKGRFTISRDNAKNTVYLQMNSLKPEDTAVYYCAAAKRYYSEMYWGQGTQVTVSS	high polyreactivity
QVQLVESGGGLVQAGGSLRLSCAASGRTFATYTMGWYRQAPGQERELVAAITRGGGSTFYADSVQGRFTITRDHAKNPVYLQMNSLKPEDTAVYYFAARIPGSFKSGYWGQGTQVTVSS	high polyreactivity
QVQLVESGGGLVQAGGSLRLSCAASGRTFAVYAMGWYRQAPGKERELVAAISRRGGSTYYADSVKGRFTISRDNAKNTVYLQMNSLKPEDTAVYYCATDNSQSTYPYDYWGQGTQVTVSS	high polyreactivity
QVQLVESGGGLVQAGGSLRLSCAASGRTFAYNAMGWYRQAPGKERELVAAIRWSADSTYYADSVKGRFTISRDNAKNTVYLQMNSLKPEDTAVYYCARRRYVGAFSVATLDYWGQGTQVTVSS	high polyreactivity
QVQLVESGGGLVQAGGSLRLSCAASGRTFAYNAMGWYRQAPGKERELVAAITRRGGSTYYADSVKGRFTISRDNAKITVYLQMNSLKPEDTAVYYCDARWVTTVQGDGRYDYWGQGTQVTVSS	low polyreactivity
QVQLVESGGGLVQAGGSLRLSCAASGRTFAYNTMGWYRQAPGKERELVAVISSGGRTYYADSGKGRFTMSRDNAKNTVYLQMNSLKPEDTAVYYCAADGYPYKYDYWGQGTQVTVSS	high polyreactivity
QVQLVESGGGLVQAGGSLRLSCAASGRTFAYYAMGWYRQAPGKERELVAAIDSSGGDTYYADSVKGRFTISRDNAKNTVYLQMNSLKPEDTAVYYCAADYYWEMDSWGQGTQVTVSS	low polyreactivity
QVQLVESGGGLVQAGGSLRLSCAASGRTFAYYAMGWYRQAPGKERELVAAISSGGGSTYYADSVKGRFTISRDNAKNTVYLQMNRLKPEDTSVYYCNKGFEFWGQGTQVTVSS	high polyreactivity
QVQLVESGGGLVQAGGSLRLSCAASGRTFAYYAMGWYRQAPGKERELVAAITQSGGRTYYADSVKGRFTISRDNAKNTVYLQMNSLKPEDTAVYYCAARRISGKWEYDYWGQGTQVTVSS	high polyreactivity
QVQLVESGGGLVQAGGSLRLSCAASGRTFAYYAMGWYRQAPGTERELVAAISYSGARTYYADSVKGRFTISRDNAKNTVYLQMNSLKPEDTAVYYCAKSRGYPYTDYNYWGQGTQVTVSS	high polyreactivity
QVQLVESGGGLVQAGGSLRLSCAASGRTFAYYTMGWYRQAPGKERELVAAISWIGGSTYYADSVKGRFTISRDNAKNTVYLQMNSLKPEDTAVYYCNAVGLHWWPGDYWGQGTQVTVSS	low polyreactivity
QVQLVESGGGLVQAGGSLRLSCAASGRTFAYYTMGWYRQAPGKERELVARISGYGGSTYYADSVKGRFTLSRDNAKNTVYLQMNSLKPEDTAVYYCNVVGAYYRYDYWGQGTQVTVSS	high polyreactivity
QVQLVESGGGLVQAGGSLRLSCAASGRTFCSNAMGWYRQAPGKERELVARISWSGGSTYYADSVKGRFTISRDNAKNTVYLQMNSLKPEVTAVYYCAKYYPGRSAFSEGTYWGQGTQVTVSS	low polyreactivity
QVQLVESGGGLVQAGGSLRLSCAASGRTFCSYTKAWYRQAPGKERELVAAISSGGSTTYADSVKGRFTISRDNAKNTVYLQLNSLKPEDTAVYYCATRAVWSSWGRRYDPWGQGTQVTVSS	high polyreactivity
QVQLVESGGGLVQAGGSLRLSCAASGRTFCVYVMGWYRQAPGKERQLVAAIDDSGGSTYYADSVKGRFTISRDNAKNTVYLQMNSLKPEDTAVYYCAKTKTQYLTSEIRFDYWGQGTQVTVSS	low polyreactivity
QVQLVESGGGLVQAGGSLRLSCAASGRTFDEYPMGWYRQAPGKERELVAAISTRGGSTYYADSVKGRFSISRDNAKNTVYLQMNSLKPEDTAVYYCAKAYYPYRYFSVYSDLESWGQGTQVTVSS	high polyreactivity
QVQLVESGGGLVQAGGSLRLSCAASGRTFDFYAMGWYRQAPGKERELVAGITSGDSTHYADSVKGRFTISRDNAKNTVYLQMNSLKPEDTAVYYCAADITWYDYAGSHIVEHDYWGQGTQVTVSS	low polyreactivity
QVQLVESGGGLVQAGGSLRLSCAASGRTFDGYTMGWYRQAPGKERELVAAISGGGGSTYYADSVKGRFTISRDNAKNTVYLQLNSLKPEDTAVYYCNKVVRQHGGLYNYWGQGTQVTVSS	low polyreactivity
QVQLVESGGGLVQAGGSLRLSCAASGRTFDHNAMGWYRQAPGKERELVAAITWSGGITDYADSVKRPFTISRDNAKNTVYLQMNSLKPEDTAVCGQGTQVTVSS	low polyreactivity
QVQLVESGGGLVQAGGSLRLSCAASGRTFDHYAMGWYIQAPGKERELVAAISNSDGSTNYADSVKGRFTISRDNAMNTVYLQMNSLKPEDTAVYYCNKLYRGGWYDYWGLGTQVTVSS	low polyreactivity

Sequence	polyreactivity (PSR sort gate)
QVQLVESGGGLVQAGGSLRLSCAASGRTFDIYAMGWYRQAPGKERELVAAINRSAGDTYYADSVKGGFTISRDNAKNTVYLQMNSLKPEDTAVYYCNAERVPYVPWLLYTEYVNYVYWGQGTQLTVSS	high polyreactivity
QVQLVESGGGLVQAGGSLRLSCAASGRTFDLNGMGWYRQAPGKERELVAAITRGGSTNYADSVKGRFTISRDNAKNTVYLQMNSLKPEDTAVYYCAADSSFWYYDRYDYWGQGTQVTVSS	low polyreactivity
QVQLVESGGGLVQAGGSLRLSCAASGRTFDPYAMGWYIQAPGKERELVAAITSGDDTYYADSVKGRFTISRDNAKNTVYLQMNSLKPEDTAVYYCAADSFTPDYYSHDYWGQGTQVTVSS	low polyreactivity
QVQLVESGGGLVQAGGSLRLSCAASGRTFDPYAMVWYRQAPGKERELVAAISSGGSTNYADSVKGRFTISRDNAMYTVYLQMNSLKPEDTAVYFCATDSGDGEGDYWGQGTQVTVSS	low polyreactivity
QVQLVESGGGLVQAGGSLRLSCAASGRTFDRNAMGWYRQAPGKERELVAAITSRGGRTYYADSVKGRFTISRDNAKNTVYLQMNSLKPEDTAVYYCAAQGRGHRFGDSRDNYWGQGTQVTVSS	high polyreactivity
QVQLVESGGGLVQAGGSLRLSCAASGRTFDRNAMGWYRQAPGKERELVARITIDGSTNYADSVKGRFTISRDNAKNTVYLQMNSLKPEDTAVYYCATDQLSLSWYFRPYDYGYWGQGTQVTVSS	high polyreactivity
QVQLVESGGGLVQAGGSLRLSCAASGRTFDRNTMGWYRQAPGKERELVAAISGSSARTYYADSVKGRFTISRDNAKNTVYLQMNSLKPEDTAVYYCNAEYGARAQHYEGDSWGQGTQVTVSS	high polyreactivity
QVQLVESGGGLVQAGGSLRLSCAASGRTFDRYAMGWYRQAPGKERELVAAITWSGGRTYYADSVKGRFTISRDNAKNTVYLQMNSLKPEDTAVYYCAADDPRDHWYTAMDYWGQGTQVTVSS	low polyreactivity
QVQLVESGGGLVQAGGSLRLSCAASGRTFDRYAMGWYRQAPGKERELVATISRRSSITYYADSVKGRFTISRDNAKNTVYLQMNRLKPEDTAVYYCAATSLYPTWRRGYDYWGQGTQVTVSS	high polyreactivity
QVQLVESGGGLVQAGGSLRLSCAASGRTFDSYTMGWYRQAPGKERELVARIRWSGGSTYYADSVKGRFTISRDNAKNTVYLQMNSLKPEDTAVYYCAVYQYVGYTMDYWGQGTQVTVSS	low polyreactivity
QVQLVESGGGLVQAGGSLRLSCAASGRTFDTYAMGWYRQAPGKERELVAAISTTGRTYYADSVKGRFTISRDNAKNTVYLQMNSLKPEDTALYYCATDPTRSPTSDWGYYYWGQGTQVTVSS	low polyreactivity
QVQLVESGGGLVQAGGSLRLSCAASGRTFDTYVMGWYRQAPGKERELVAAISIGGNTNYADSVKGRFTISRDNAKNTVYLQMNSLKPEDTAVYYCAKAWSGISSRDYDLDYWGQGTQVTVSS	low polyreactivity
QVQLVESGGGLVQAGGSLRLSCAASGRTFDVNAMGWYRQAPGKERELVAAIRISGGSTYYADSVKGRFTISRDNAKITVYLQMNSLKPEDTAVYYCAAYERRYRNAYDYWGQGTQVTVSS	high polyreactivity
QVQLVESGGGLVQAGGSLRLSCAASGRTFDVYAMAWYRQAPGKERELVATISWRGTSTYYADSVKGRFTISRDNAKNTVYLQMNSLKPADTAVYYCAKDPQPDLYGSWGQGTQVTVSS	high polyreactivity
QVQLVESGGGLVQAGGSLRLSCAASGRTFDVYAMGWYRPAPGKERELVAAITSGGSTYYADSVKGRYTISRDNAKNTVFLLINSLKPEDTAVYYCATDVDKSLYDYWGQGTQVTVSS	low polyreactivity
QVQLVESGGGLVQAGGSLRLSCAASGRTFDVYTMGWYRHAAGKERELVAAITARGARTYYADSVKGRFTISRDNAKNTVYLQMNSLKPEDTAVYYCAAKSYRHSLYDYWGQGTQVTVSS	high polyreactivity
QVQLVESGGGLVQAGGSLRLSCAASGRTFDWYAMGWYRPAPGKERELVAAISRSGGSTYYADSVKGRFTISLDNAKNTVYLQMNSLKPEDTAVYYCAKRYAPDSRYYYWGQGTQVTVSS	high polyreactivity
QVQLVESGGGLVQAGGSLRLSCAASGRTFDWYVMGWYRQAPGKERELVASIRGTGSTYYADSVKGRFTISRDNAKNTVYLQMNSLKPEDTAVYYCAARPGYLYSKYNYWGQGTQVTVSS	high polyreactivity
QVQLVESGGGLVQAGGSLRLSCAASGRTFDYNAMGWYRPAPGKERELVAAISRSGGSTYYADSVKGRFTISRDNAKNTVYLQMNRLKPEDTAVYYCAADNYYLFALYEYGYWGQGTQVTVSS	high polyreactivity
QVQLVESGGGLVQAGGSLRLSCAASGRTFDYNAMGWYRQAPGKEREMVAAISSSGGSTYYADSVKGRFTISRDNAKNTVYLQMNSLKPEDTAVYYCATLYPRISIYYYWGQGTQVTVSS	high polyreactivity

Reference: the nanobody polyreactivity screen of Harvey et al. (2022)
